PMC4671958, “Structure of the Helicase Domain of DNA Polymerase Theta Reveals a Possible Role in the Microhomology-Mediated End-Joining Pathway”

Molecular target: Polθ-HLD (DNA polymerase theta helicase domain) (Homo sapiens, UniProt O75417 67-894)
Assay: fluorescence polarization; low salt, 50 mM NaCl; stated as single digit nM; 10 mM HEPES pH 7.5, 150 mM NaCl (low salt: 50 mM NaCl), 10 nM probe; temperature not stated in material
Details: protein: recombinant; tags: His6 tag cleaved with TEV; chain copies: 4; label: 5' fluorescein (FITC); single strand

Polθ-HLD (DNA polymerase theta helicase domain), sequence (O75417 67-894): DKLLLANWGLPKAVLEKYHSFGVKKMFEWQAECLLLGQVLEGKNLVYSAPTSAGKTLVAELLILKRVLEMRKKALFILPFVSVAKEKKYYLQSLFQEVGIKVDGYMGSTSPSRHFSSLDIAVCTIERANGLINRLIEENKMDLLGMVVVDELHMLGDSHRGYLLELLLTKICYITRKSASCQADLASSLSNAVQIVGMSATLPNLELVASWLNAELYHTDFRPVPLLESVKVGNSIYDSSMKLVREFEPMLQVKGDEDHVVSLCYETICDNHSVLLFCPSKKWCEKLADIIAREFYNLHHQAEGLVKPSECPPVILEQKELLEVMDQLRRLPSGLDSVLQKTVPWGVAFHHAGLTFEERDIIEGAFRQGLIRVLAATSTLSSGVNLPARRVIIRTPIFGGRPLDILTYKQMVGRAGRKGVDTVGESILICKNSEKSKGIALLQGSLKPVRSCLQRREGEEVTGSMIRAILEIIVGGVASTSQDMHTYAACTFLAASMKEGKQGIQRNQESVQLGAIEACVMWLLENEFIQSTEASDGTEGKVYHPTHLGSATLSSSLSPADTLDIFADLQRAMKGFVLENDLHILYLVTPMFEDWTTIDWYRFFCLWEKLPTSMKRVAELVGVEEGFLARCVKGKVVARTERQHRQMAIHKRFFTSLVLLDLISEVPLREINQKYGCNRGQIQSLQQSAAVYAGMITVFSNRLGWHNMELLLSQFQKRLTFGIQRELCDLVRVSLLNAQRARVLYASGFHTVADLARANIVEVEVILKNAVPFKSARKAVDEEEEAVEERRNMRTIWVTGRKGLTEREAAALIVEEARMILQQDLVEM

B1: Single stranded (POLQ-1) (ssDNA)
DNA: ATCGATAGTCGGATCCTCTAGACAGCTCCATGTAGCAAGGCACTGGTAGAATTCGGCAGCGTC
With B1 the Kd was < 10 nM.
